Assay results taken from patent US20240285759A1 (published 2024).
One block for each binder: values may come before it.

How the values were obtained:
Experiment in all cases: cytokine release
[1] = molecular target: T1, NRAS Q61K (RAS Q61K; the filing also names KRAS and HRAS comprising this peptide) peptide on HLA-A*01:01 (human)
T1 peptide: ILDTAGKEEY

[2] = molecular target: T2, NRAS wild type (RAS wild type) peptide on HLA-A*01:01 (human)
T2 peptide: ILDTAGQEEY

[3] = molecular target: T3, NRAS Q61R (RAS Q61R; the filing also names KRAS and HRAS comprising this peptide) peptide on HLA-A*01:01 (human)
T3 peptide: ILDTAGREEY

binding result [1]: recognises
binding result [2]: no recognition
binding result [3]: recognises
B1: TCR1 (TCR, V domains shown)
Valpha: GQQLNQSPQSMFIQEGEDVSMNCTSSSIFNTWLWYKQEPGEGPVLLIALYKAGELTSNGRLTAQFGITRKDSFLNISASIPSDVGIYFCAGRDDAGNMLTFGGGTRLMVKP
Vbeta: GAVVSQHPSRVICKSGTSVKIECRSLDFQATTMFWYRQFPKKSLMLMATSNEGSKATYEQGVEKDKFLINHASLTLSTLTVTSAHPEDSSFYICSASVRMNTEAFFGQGTRLTVV

binding result [2]: no recognition
binding result [3]: recognises
B2: TCR2 (TCR, V domains shown)
Valpha: GESVGLHLPTLSVQEGDNSIINCAYSNSASDYFIWYKQESGKGPQFIIDIRSNMDKRQGQRVTVLLNKTVKHLSLQIAATQPGDSAVYFCAENIRLTGANNLFFGTGTRLTVIP
Vbeta: GAVVSQHPSWVICKSGTSVKIECRSLDFQATTMFWYRQFPKQSLMLMATSNEGSKATYEQGVEKDKFLINHASLTLSTLTVTSAHPEDSSFYICSARLLSYEQYFGPGTRLTVT
